Test results taken from the DeepSol protein solubility set.

Assay: soluble on expression in E. coli; label from the status in PepcDB or PDB records

Soluble on expression in E. coli, not soluble:
MGSDKIHHHHHHMTFAQIQTFLAVARLGNFHAAARQLNVTQAAVSARVRQLEEELDLRLFERGRRGAELTEAGRFLLPGAEAIASTWTTISKDARHFYAGRVPLRLGGQLSIWDQQLVDLVIWVEETLGALPLALNFDHEMNVQDAIRNGVLDFALTHEQPAPDLTGVALPAERLVLVGSEPFDLGQSDLPLFMNFQLGGQYDAFVARHLSGHAGQHIMMGNCAMGLRYLRKRGGIAFFPVSMVVEDIQHGHLFPVQGVPEMELACNAVYHPSSVLGDLTAQIATAARSLRSREPVVALDTMS, MGSDKIHHHHHHCGGGTERKGLEALVAEYKKLNPDVDFEIIDISYSSYMQKISLAVMSGDVPDLMTITYPFAPELRKYLIDLDPYIEKYLGITPKEYEDAFYNVVKPYIKDENGKIKYVPLHFTVQGLWVNVDYFEKAGIPFPPLGGREEPWTWEEFVEVLRKVKEANNLPYAMSMQYSAERIANYLAIRGAKVLDENLNLVLDKDPKAIKALEDFVNLFKENLCVPAEWVSGQSADNDFYGGVTAVYWAGSWETLDALSVEGKRFLPAYLPKDEYCFGVEGGRFFGAFKTGDKKKEEEAAKFALWAGWKGKGYDIYLKTTLHLSAYKDHKVDYGVPIMESVQKVFGYLAANAPEWIVTVRANPVWSRLYDPLRKQISLVIAGQQDLQTALKNIRAEYERIVEELGIK, MPQYKLTYFDLRGWAEPARQLFHLSHTPYDDIRIPMADTEGKWEKMRDKTPFGQLPVLNVDGFDIPQSAAICRYLAKKFGYAGKTPEEEAWADAVVDQFKDFSVAFKTLLFATRAGKPEEEILKIRYEIFNPARDVYFILLNRILKKSKSGYLVGDGLTWADLVIADNLHSLEKLRAIDDDDEGHQNLKKYKEKIYGTPDLEDHIATRMDTEV, MGSDKIHHHHHHMKVLFTFGGIPHYLNAMLNRLQAKGVEITVVSPKKGNTTIGKGVKMVEGGTYKHLTTPEKKMFYGKSAFPALPEIIAEEKPDIVVVGWPYFLQVFFQPALRKAMKSCNAKLVIREIPFQTPPYGKIKEYFKANPMHDEGMRLLSKGIGFYLRQWITARIRKYCYAQAAGTLNYSTAAYDILPSYGVKKEQIHVTYNSTDTEALLKEKESVLASPSILPPCDRRLLHIGRLVKWKRVDLLIEAFRKVATDYPEAELVIVGDGPELDNLRQQANDLQLADSIRFIGAVYDPKTLGAYMNESSIYVLAGMGGLSINDAMTYGMPVLCAVCDSTERDLVMEGKNGYFFKDGDADSLAGRIREMFESPERCKEMGKESERMIREKINMETVSERYLKAFQEILRLTHLRDSGN, MDQKREALVGPITSSPASILELSIFYEFLKAQWCAFTIGSSEPPISPRQLNLLSLLIGPSNSDQEIPRDTVAVSWVYVGFEFGESCEQFGATDEQLRGHFEYQMICTNVQCIYFVEDGKKRRMAGVTWYLRNDEKSKNHEDYNMIAIYETIREKRFEEVQKIRKLEKEEALRRGGWLGEPTDEYTSTIFSHLKLLTLKDGRLAVFACNADGEEEKFAFNERTERYEVLEDVVEVEDRPSNYLLRII, MVNIPNFIDKVLSVNDTSNASLTHCIKEADIDGVIEECKDILSAQATMVEVQAPIAVCGDIHGQYTDLLRIFNRCSFPPDQNYLFLGDYVDRGRQQLEVICLLMAYKVRYPNGFFILRGNHECASINRTYGFYDECKRRYSLALYNEFQNLFNSLPLCAMISGRIFCMHGGLSPELVSWTQLAKIIRPFDPPNACLAMDLLWADPENNHTGWGKNSRGVSYIFGANVVKDFTEKMNIDLIARGHQVVQDGYEFFADKRLVTIFSAPKYCGEFDNNAGIMIVDERLIISFEILKPAMREVKIQARAAAKNKSTRSILVSSRGPKSKKG, MGSDKIHHHHHHLTNLLVIGATGNIGQPLIRDLQDDPDVHLFAGVHNSEHAKQALNGLKVQVRRFDFLDPATFEQALADIDKVFFVRPPQLAKPKEDMYPFLDALVARHVKQVVFVSLLGVAHNPMTPHHQIEKRIVELGLPYTFIRPSFFMQNLNTTHQADIVGHRDLFVPAGHARTSFIDTRDIGATAAVILRDPAYIGQKLDITGAQALTYADAAQIMTMELGVPITYSKPSLWRFRKVMLQRGLPKNYVNVMVMLYLITQLGNAKTVTTTLPNVLGRPAISFEQYVHDYRAEFLPKPLS, MGSDKIHHHHHHMTTTEQELTLTPLRGKSGKAYKGTYPNGECVFIKLNTTPILPALAKEQIAPQLLWAKRMGNGDMMSAQEWLNGRTLTKEDMNSKQIIHILLRLHKSKKLVNQLLQLNYKIENPYDLLVDFEQNAPLQIQQNSYLQAIVKELKRSLPEFKSEVATIVHGDIKHSNWVITTSGMIFLVDWDSVRLTDRMYDVAYLLSHYIPRSRWSEWLSYYGYKNNDKVMQKIIWYGQFSHLTQILKCFDKRDMEHVNQEIYALRKFREIFRKK, DIPFYEQVKASAGHGFLCECKNVTYISLPKALFKYFNVKDLLAITAHGDSMEPVLNDDALLVIDSSKKQIRDGSMYVIRQGDLIRVKLISLDNNGLKLKSYNQSYHDEIYEDYQDVEILGKVIWYSSLCL

Soluble on expression in E. coli, soluble:
MPEHLNARVEACYRQAEHFFQRSFPRPTVSFRLRGQKAGVAHLDENLLRFNPQLYRENREHFLEQTVAHEVAHLIAHQLFGPRIRPHGEEWQLIMRGIYGLPPDRCHTYAVKRRATTRYLYRCHCPEHNDFPFSPQRHTLVAKGRRYYCRRCKATLVFTGEVLRELEHHHHHH, MKGLIIKQPYANWIVEGKKVWEIRKTPTKIRGRVIIISEKKAVGSVEIVDVLGPFTPEELANHENKHLASYDFLKRYANGKKLYAWVLANPEKYDPPIEVKIPNGAQIWVNLKGFVRR, SSNNFNYGAYHSLEAIYHEMDNIAADFPDLARRVKIGHSFENRPMYVLKFSTGKGVRRPAVWLNAGIHSREWISQATAIWTARKIVSDYQRDPAITSILEKMDIFLLPVANPDGYVYTQTQNRLWRKTRSRNPGSSCIGADPNRNWNASFAGKGASDNPCSEVYHGPHANSEVEVKSVVDFIQKHGNFKGFIDLHSYSQLLMYPYGYSVKKAPDAEELDKVARLAAKALASVSGTEYQVGPTCTTVYPASGSSIDWAYDNGIKFAFTFELRDTGTYGFLLPANQIIPTAEETWLGLKTIMEHVRDNLY, GHMASMDISGGNTSRQPQKKSNQNIQVYVRVRPLNSRERCIRSAEVVDVVGPREVVTRHTLDSKLTKKFTFDRSFGPESKQCDVYSVVVSPLIEEVLNGYNCTVFAYGQTGTGKTHTMVGNETAELKSSWEDDSDIGIIPRALSHLFDELRMMEVEYTMRISYLELYNEELCDLLSTDDTTKIRIFDDSTKKGSVIIQGLEEIPVHSKDDVYKLLEKGKERRKTATTLMNAQSSRSHTVFSIVVHIRENGIEGEDMLKIGKLNLVDLAGSENVSKAGNEKGIRVRETVNINQSLLTLGRVITALVDRAPHVPYRESKLTRLLQESLGGRTKTSIIATISPGHKDIEETLSTLEYAHRAKNIQNKPEVNQKLTK, MSLIRVAIADDHQTLIDGISLRFDGNESIDLVFSANDGKDFLKQLKITPVDLVITDLKMPKMDGVTLAREIKRDFKNVKVIVLSMFDQPDVINKMVDVDVDGYILKTSSLDELVTAIGEVNKGKKYFDKHLHGITSLFDVNSTSSKTSLSNAEKDILNLIAEGKTSQEIANERACAVSTIHTHRRNMAHKLELYGKGELLRYAMDKKYNFEEGHHHHHH, MGEPVILEAVRTPIGKRNGALRAYRPDALYAKVLDALLERTGIDPGLIGDVVTGCVTQVGEQGANVGRLGVLLSRLPKEVPAVSLNRMCGSSQQAVHFAAQAIAAGDVDFAIAGGVESMTRVPMFADIGGGFHTLNPELGKRYELVHQGESAERIAERYGFCREELDEWGYLSHKRAARATEEGRFSAQILPLEGLDAEGRPFLLTRDEGVRPDVDYEKMLALKPVFREDGVVTAGNSSQISDGAAALLLGDREKALALGLRPRARFLARVVVAGDPTLQLLEVIPAAKKALERAGLSLRDVDVIEVNEAFASVVLAFLRELGADPEKVNPNGGAIAHGHPLGATGAVLMTKLLYELERTGSEFGLQVMCIGHGQATATVIQRL, MARKALIEKAKRTPKFKVRAYTRCVRCGRARSVYRFFGLCRICLRELAHKGQLPGVRKASW, MLWRKRLFAHLYPGLSARHEALVAERKRALFREALRRARPERVLEIGPGPGTNLAHLPEGVAYLALEPNPFFHPRLREEARKRGLALTLLPGRAEAIPLPGGSVDLVVATLVLCSVADPEKAIEEVHRVLRPGGAYLFLEHVAAPKRTPLRFLQEVATPFFAFFGDGCHPNRETLALIQARFPRVEAEAFPLPLPVVAPHVAGLAFKEGGSGGSLQGPWA, VVVGAERTELLLPLLRDKRVALVANATSVVGTEREHLLDNLLRQGVNVVKILGPEHGFRGDADAGATVKDERDVRTGIPIVSLYGKNKKPTPRMLADVDVLLFDMQDVGTRFFTYISTLHYVMEACAEEQKKLIVTDRPNPNDYVDGPILQDDCRSFVGVDPLPILHGLTIGELANMINGEGWLGKKEMKCDLTVVPMSGWKHGQEYALPVKPSPNLPTANAIAWYPSLCLFEATIMSVGRGTDFPFEVLGYPKKVFGSFVFVPRPIRGMDSNPLYKGRHCYGVDLRGEKAPRGLSLQLLIRYYQTARREGIKFVNRKQMFNLLAGTKELAQQIEKGRTEEQIRASWQSDLDKYHKLRKKYLLYPTPTE, MSDVKSVIESGRAVLGIEFGSTRIKAVLIGEDHAPIATGAHDWENMLVDGIWTYSLDMIWEGISDCYSKMAQDAKEKYGVTIKKLAAIGISGMMHGYLPFDEEDNLLVPFRTWRNTITGEAAAELTEVLGFNIPQRWSIAHLYQAILNKEEHVSKISYFTTLAGYIHWQLTGEKVMGVGEASGMFPIDSKTRDYDAAMLDKFAALDKVKEYPWDIRDILPKVLTAGEKAGTLTEEGAKRLDVSGNLESGILLAPPEGDAGTGMVATNSVAVRTGNVSAGTSVFAMVVLEKALKAVHEELDMVTTPSGDAVAMVHCNNCTSDLNAWVGLFKEFSELFGMDIDMNDIYGKLYNNALTADKDCGGLVAFNLFSGEPVIGLNEGRPMFARKPDARMNLANFMRTHLYASLATLKIGCDILFKEEKVKVDTLYGHGGLFKTKGVGQSILAAAMDAPVAVMETAGEGGPWGMAVLAAYMVNKADGEPLEKYLSDRVFNGEKGIVMQPDPDDVKGFDEYINTYKAAIEAERAMVKALPLLEHHHHHH, MAEATVLIPAFNEEATVGRVVRVAREAGFPVVVADDGSKDETARRALEAGAEVVRLKENRGKGGAIAEGLKAVRTPFVLLLDADLLGLRPEHLFALLKPLKEGEARMAVGVFRGGRASTDLAMRLTPFLSGQRALRLEDLRSVPGLERARYDLELLLTRHAKRAGWPVVYVPMEGVSQVMKEEKRGVLAGLGHRLRMYWEILRYRLRAR, MYNVEIRRPNSDDLEELHSFFRIVITNTFKDEGLSQLSDDIENEINTKKQYLKNDFDSNGEKRYFLLAIDTNNDKIIGTIEVGPASTLINSCTGGVLKDLYEIGTVFILPEYQKKGIGSFLLHTMFLTLLSRGITEYCLDSGYKKAQSIWTKKFGEPSYVLKDYWGESSDHMIWKKSLYDTPIIFELMAGDPLEHHHHHH
